# Measurements taken from US20030105008A1 (BRIGHAM AND WOMEN S HOSPITAL, published 2003).
# T1: ORC2+3 core complex (human, UniProt Q13416 1-577; Q9UBD5 1-711)
# T1 construct: Untagged ORC2 and ORC3 co-expressed in Sf9 cells with a GST-tagged third subunit; also called ORC2+3 subcomplex; ORC2-3 complex
# T1 sequence (looked up) 1: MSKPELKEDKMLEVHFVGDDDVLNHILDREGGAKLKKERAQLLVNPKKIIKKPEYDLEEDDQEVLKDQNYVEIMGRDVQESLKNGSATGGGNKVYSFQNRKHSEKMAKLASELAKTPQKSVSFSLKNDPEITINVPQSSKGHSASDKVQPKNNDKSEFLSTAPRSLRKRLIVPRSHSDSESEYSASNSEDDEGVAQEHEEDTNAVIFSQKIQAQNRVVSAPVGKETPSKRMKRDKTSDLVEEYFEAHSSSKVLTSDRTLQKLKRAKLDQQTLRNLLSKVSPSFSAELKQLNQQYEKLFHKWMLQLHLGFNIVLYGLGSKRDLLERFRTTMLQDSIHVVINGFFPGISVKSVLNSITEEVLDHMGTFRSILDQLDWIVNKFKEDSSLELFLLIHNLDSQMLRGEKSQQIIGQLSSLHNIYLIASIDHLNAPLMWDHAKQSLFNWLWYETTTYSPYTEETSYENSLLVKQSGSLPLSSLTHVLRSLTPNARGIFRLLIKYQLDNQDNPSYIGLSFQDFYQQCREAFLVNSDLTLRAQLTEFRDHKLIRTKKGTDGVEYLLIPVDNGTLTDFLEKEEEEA
# T1 sequence (looked up) 2: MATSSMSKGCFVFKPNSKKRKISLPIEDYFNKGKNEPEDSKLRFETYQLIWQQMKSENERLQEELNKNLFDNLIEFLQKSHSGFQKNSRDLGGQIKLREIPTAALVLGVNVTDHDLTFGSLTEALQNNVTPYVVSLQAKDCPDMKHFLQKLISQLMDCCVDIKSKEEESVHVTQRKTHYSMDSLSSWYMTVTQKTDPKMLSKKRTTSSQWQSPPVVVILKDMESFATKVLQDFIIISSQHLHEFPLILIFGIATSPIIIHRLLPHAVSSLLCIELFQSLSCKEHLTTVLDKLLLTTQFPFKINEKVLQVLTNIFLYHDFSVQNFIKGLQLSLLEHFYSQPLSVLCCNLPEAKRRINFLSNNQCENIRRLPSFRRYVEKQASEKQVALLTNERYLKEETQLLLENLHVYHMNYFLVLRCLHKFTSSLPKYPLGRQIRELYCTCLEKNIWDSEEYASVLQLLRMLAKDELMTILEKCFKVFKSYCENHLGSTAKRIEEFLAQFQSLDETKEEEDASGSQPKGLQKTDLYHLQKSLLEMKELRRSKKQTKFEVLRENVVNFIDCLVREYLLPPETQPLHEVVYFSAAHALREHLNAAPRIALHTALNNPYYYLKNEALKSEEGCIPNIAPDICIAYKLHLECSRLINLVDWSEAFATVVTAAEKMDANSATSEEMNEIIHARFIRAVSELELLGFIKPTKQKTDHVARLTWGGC
# T2: GSTORC2 (GST fused to full-length human ORC2) (human, UniProt Q13416 1-577)
# T2 construct: domain: full-length; also called GSTO2; not shown: GST tag of pFB-GST (baculovirus) or pGEX-5X-3 (bacterial)
# T2 sequence (looked up): T1 sequence (looked up) 1
# B1: GSTORC5 (GST fused to human ORC5) (other, UniProt O43913 1-435, looked up)
# chain: MPHLENVVLCRESQVSILQSLFGERHHFSFPSIFIYGHTASGKTYVTQTLLKTLELPHVFVNCVECFTLRLLLEQILNKLNHLSSSEDGCSTEITCETFNDFVRLFKQVTTAENLKDQTVYIVLDKAEYLRDMEANLLPGFLRLQELADRNVTVLFLSEIVWEKFRPNTGCFEPFVLYFPDYSIGNLQKILSHDHPPEYSADFYAAYINILLGVFYTVCRDLKELRHLAVLNFPKYCEPVVKGEASERDTRKLWRNIEPHLKKAMQTVYLREISSSQWEKLQKDDTDPGQLKGLSAHTHVELPYYSKFILIAAYLASYNPARTDKRFFLKHHGKIKKTNFLKKHEKTSNHLLGPKPFPLDRLLAILYSIVDSRVAPTANIFSQITSLVTLQLLTLVGHDDQLDGPKYKCTVSLDFIRAIARTVNFDIIKYLYDFL
# notes: Baculovirus-expressed; not shown: GST tag of the pFB-GST vector
# B2: human ORC6, untagged (other, UniProt Q9Y5N6 1-252, looked up)
# chain: MGSELIGRLAPRLGLAEPDMLRKAEEYLRLSRVKCVGLSARTTETSSAVMCLDLAASWMKCPLDRAYLIKLSGLNKETYQSCLKSFECLLGLNSNIGIRDLAVQFSCIEAVNMASKILKSYESSLPQTQQVDLDLSRPLFTSAALLSACKILKLKVDKNKMVATSGVKKAIFDRLCKQLEKIGQQVDREPGDVATPPRKRKKIVVEAPAKEMEKVEEMPHKPQKDEDLTQDYEEWKRKILENAASAQKATAE
# B3: GSTORC4 (GST fused to human ORC4) (other, UniProt O43929 1-436, looked up)
# chain: MSSRKSKSNSLIHTECLSQVQRILRERFCRQSPHSNLFGVQVQYKHLSELLKRTALHGESNSVLIIGPRGSGKTMLINHALKELMEIEEVSENVLQVHLNGLLQINDKIALKEITRQLNLENVVGDKVFGSFAENLSFLLEALKKGDRTSSCPVIFILDEFDLFAHHKNQTLLYNLFDISQSAQTPIAVIGLTCRLDILELLEKRVKSRFSHRQIHLMNSFGFPQYVKIFKEQLSLPAEFPDKVFAEKWNENVQYLSEDRSVQEVLQKHFNISKNLRSLHMLLMLALNRVTASHPFMTAVDLMEASQLCSMDSKANIVHGLSVLEICLIIAMKHLNDIYEEEPFNFQMVYNEFQKFVQRKAHSVYNFEKPVVMKAFEHLQQLELIKPMERTSGNSQREYQLMKLLLDNTQIMNALQKYPNCPTDVRQWATSSLSWL
# notes: as for B1
# B4: ORC3N (ORC3N200), N-terminal 200 amino acids of human ORC3 (other)
# chain: MATSSMSKGCFVFKPNSKKRKISLPIEDYFNKGKNEPEDSKLRFETYQLIWQQMKSENERLQEELNKNLFDNLIEFLQKSHSGFQKNSRDLGGQIKLREIPTAALVLGVNVTDHDLTFGSLTEALQNNVTPYVVSLQAKDCPDMKHFLQKLISQLMDCCVDIKSKEEESVHVTQRKTHYSMDSLSSWYMTVTQKTDPKML
# notes: also called construct 3
# Experiments:
# [1] = biological target: T3, ORC2, ORC3 and ORC4 co-expressed with GSTORC5 (human, UniProt Q13416 1-577; Q9UBD5 1-711; O43929 1-436); experiment: GST pull-down on glutathione beads from Sf9 cells expressing human ORC1-6 with ORC5 GST tagged; immunoblot
# T3 construct: The set of untagged subunits that come down with GSTORC5; written as one partner because the pairwise tests of GSTORC5 with each of them were negative; also called ORC2, 3 and 4
# Method: (§1) The cell suspension was homogenized in a Dounce homogenizer using a B-type pestle followed by centrifugation at 3000 rpm for 7 min. The pellet containing the nuclei was lysed in buffer H/0.15 (50 mM HEPES.KOH, pH 7.5; 150 mM KCl; 0.02% NP-40; 5 mM Magnesium acetate; 1 mM EDTA; 1 mM EGTA; 10% glycerol, 1 mM PMSF, 2 μg/ml pepstatin, 2 μg/ml leupeptin, 5 μg/ml aprotinin, 1 mM DTT). The resulting suspension was subjected to ammonium sulfate precipitation (starting with 10% followed by 30% and finally 50%). The pellet following 50% ammonium sulfate cut was resuspended in buffer H/0.0 (no salt) and then dialyzed overnight against buffer H/0.15. […] Proteins were eluted using reduced glutathione elution buffer (50 Mm Tris.Cl, pH 8.0; 20 mM reduced glutathione; 0.01% NP-40; 100 mM NaCl). Gel filtration of glutathione eluate using fast protein liquid chromatography Superose 12 (Amersham Pharmacia Biotech Inc, Piscataway, N.J.) column was performed as described previously (Dhar, S. K. & Dutta, A. J Biol Chem 275:34983-8, 2000).
# (§2) To purify recombinant six protein human origin recognition complex, Sf9 insect cells were infected with baculoviruses expressing human ORC1-6 subunits.
# ORC2+3 core complex [2] = biological target: T1, ORC2+3 core complex; experiment: co-expression of GSTORC5, ORC2 and ORC3 in Sf9 cells, glutathione beads, immunoblot
# Method: as §1, with “Cells were harvested 48 hours post-infection. The cell pellet was washed once in cold phosphate buffered saline (PBS), and subsequently resuspended in hypotonic lysis buffer (10 mM Tris.Cl, pH 7.9; 10 mM KCl; 1.5 mM MgCl₂; 1 mM Phenylmethylsulfonyl Fluoride (PMSF); 2 μg/ml pepstatin; 2 μg/ml leupeptin; 5 μg/ml aprotinin; 1 mM DTT). The cell” for “The cell”
# [3] = biological target: T4, complex of GSTORC5, ORC2, ORC3 and ORC4 (human, UniProt O43913 1-435; Q13416 1-577; Q9UBD5 1-711; O43929 1-436); experiment: GST pull-down on glutathione beads from Sf9 cells expressing human ORC1-6 with ORC5 GST tagged; immunoblot
# T4 construct: Complex purified on glutathione beads from Sf9 cells; also called GSTORC5, 2, 3 and 4; ORC2, 3, 4 and 5 core complex; not shown: GST tag of the pFB-GST vector
# Method: as §1, §2
# ORC2+3 core complex [4] = biological target: T1, ORC2+3 core complex; experiment: co-expression of GSTORC4, ORC2 and ORC3 in Sf9 cells, glutathione beads, immunoblot
# Method: as §1, with “Cells were harvested 48 hours post-infection. The cell pellet was washed once in cold phosphate buffered saline (PBS), and subsequently resuspended in hypotonic lysis buffer (10 mM Tris.Cl, pH 7.9; 10 mM KCl; 1.5 mM MgCl₂; 1 mM Phenylmethylsulfonyl Fluoride (PMSF); 2 μg/ml pepstatin; 2 μg/ml leupeptin; 5 μg/ml aprotinin; 1 mM DTT). The cell” for “The cell”
# [5] = biological target: B1; experiment: glutathione beads from Sf9 cells co-expressing GSTORC5, ORC2, ORC4 and ORC3N; western blot
# Method: as §1
# [6] = biological target: T2, GSTORC2 (GST fused to full-length human …); experiment: GST pull-down of 35S-labelled in vitro translated ORC3N on bacterially expressed GSTORC2
# From the text: (§3) Pull-down assays on glutathione agarose beads were done as described in (Lin, Y. L., et al., J Biol Chem 271:17190-8, 1996).
# [7] = biological target: T5, GST (glutathione S transferase), control protein (UniProt P08515 1-218 = GST); experiment: GST pull-down of 35S-labelled in vitro translated ORC3N (control of the GSTORC2C experiment)
# T5 construct: Negative control in the pull-downs; also called control GST
# From the text: as §3
# T5 sequence (P08515 whole entry): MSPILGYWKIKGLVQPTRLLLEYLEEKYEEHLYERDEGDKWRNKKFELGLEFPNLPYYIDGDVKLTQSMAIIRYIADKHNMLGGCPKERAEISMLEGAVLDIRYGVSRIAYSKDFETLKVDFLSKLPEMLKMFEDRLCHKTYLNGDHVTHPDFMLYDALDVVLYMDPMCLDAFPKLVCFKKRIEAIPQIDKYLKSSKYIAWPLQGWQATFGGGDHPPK
binder,measurement,setting,value
B1,binding result,[1],binds
same,binding result,ORC2+3 core complex [2],binds
B2,binding result,[3],no binding
B3,binding result,ORC2+3 core complex [4],no binding
B4,binding result,[5],no binding
same,binding result,[6],binds
same,binding result,[7],no binding
